# Values quoted from earlier work, collected in paper PMC11806408.
# Target: BMP-10 GF growth factor (Homo sapiens) (UniProt O95393)
# Sequence (O95393 317-424): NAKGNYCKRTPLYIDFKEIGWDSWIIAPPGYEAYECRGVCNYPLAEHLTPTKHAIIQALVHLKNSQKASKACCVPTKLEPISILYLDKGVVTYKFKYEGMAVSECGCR
# Sequence of BMP-10 PD prodomain (O95393 22-316): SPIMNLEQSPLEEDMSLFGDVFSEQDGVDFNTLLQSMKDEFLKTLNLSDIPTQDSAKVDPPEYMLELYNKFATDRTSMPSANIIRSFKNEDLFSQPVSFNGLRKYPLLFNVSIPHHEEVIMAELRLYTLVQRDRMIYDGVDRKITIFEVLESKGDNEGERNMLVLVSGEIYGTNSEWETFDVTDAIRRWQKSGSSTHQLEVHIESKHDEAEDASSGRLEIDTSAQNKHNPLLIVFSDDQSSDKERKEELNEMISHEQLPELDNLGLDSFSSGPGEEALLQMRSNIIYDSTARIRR
substance,measurement,value
BMP-10 PD prodomain (from UniProt O95393),Kd,7 nM
